Reference: paper PMC9493007
“And” between values parts separate entries of the source, which are not always exact repeats. Equal values may be shown once.

Assays:
[1] = target: YsaN wild type full length (untagged) (Yersinia enterocolitica 8081); experiment: SEC; analytical Superdex 200 HR 10/30; about 10 µM protein pre-incubated with 1.5 mM ADP and 1.5 mM AlCl3 (ADP.AlFX); 50 mM Tris pH 8.0, 100 mM KCl, 4 mM MgCl2, 5 mM NaF, 1 mM DTT, 5% glycerol; 0.5 ml/min, room temperature; apparent molecular weight from a standard curve
[2] = target: YsaN∆83 (Yersinia enterocolitica 8081); experiment: negative-stain TEM
[3] = target: YsaN∆83 (Yersinia enterocolitica 8081); experiment: SEC; analytical Superdex 200 HR 10/30; about 10 µM protein pre-incubated with 1.5 mM ADP and 1.5 mM AlCl3 (ADP.AlFX); 50 mM Tris pH 8.0, 100 mM KCl, 4 mM MgCl2, 5 mM NaF, 1 mM DTT, 5% glycerol; 0.5 ml/min, room temperature; apparent molecular weight from a standard curve

Substance | stoichiometry N [1] | stoichiometry N [2] | stoichiometry N [3]
YsaN wild type full length (untagged) (enzyme) | 6 and 12 | – | –
YsaN∆83 (domain or fragment) | – | 6 | 6
